# Patent US20220202905A1, “COMPOSITION FOR PREVENTING OR TREATING NEUROTROPHIC KERATITIS WHICH CONTAINS PACAP PEPTIDE OR STABILIZED PACAP PEPTIDE” (SENJU PHARMACEUTICAL CO., LTD., priority 2019, published 2022)
# Square brackets hold non-standard residues; d marks the D form. Peptide text beside a SMILES is read from it. Ala(1H-tetrazol-5-yl) = N[C@@H](Cc1nnn[nH]1)C(=O)O
# T1: PAC1 receptor (UniProt P41586 21-468, limits assumed)
# T1 sequence (looked up): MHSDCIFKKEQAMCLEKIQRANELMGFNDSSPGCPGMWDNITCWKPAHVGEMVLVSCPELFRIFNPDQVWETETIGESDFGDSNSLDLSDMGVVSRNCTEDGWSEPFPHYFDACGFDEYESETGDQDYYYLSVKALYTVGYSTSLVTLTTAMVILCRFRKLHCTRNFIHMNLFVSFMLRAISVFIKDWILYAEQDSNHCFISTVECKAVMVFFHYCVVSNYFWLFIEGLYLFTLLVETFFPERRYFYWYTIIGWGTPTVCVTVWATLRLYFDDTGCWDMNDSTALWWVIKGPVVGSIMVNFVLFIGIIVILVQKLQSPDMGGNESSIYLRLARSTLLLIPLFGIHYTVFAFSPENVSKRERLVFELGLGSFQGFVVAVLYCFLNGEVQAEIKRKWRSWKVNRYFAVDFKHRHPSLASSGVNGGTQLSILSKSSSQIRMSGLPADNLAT
# T2: VPAC1 receptor (UniProt P32241 31-457, limits assumed)
# T2 sequence (looked up): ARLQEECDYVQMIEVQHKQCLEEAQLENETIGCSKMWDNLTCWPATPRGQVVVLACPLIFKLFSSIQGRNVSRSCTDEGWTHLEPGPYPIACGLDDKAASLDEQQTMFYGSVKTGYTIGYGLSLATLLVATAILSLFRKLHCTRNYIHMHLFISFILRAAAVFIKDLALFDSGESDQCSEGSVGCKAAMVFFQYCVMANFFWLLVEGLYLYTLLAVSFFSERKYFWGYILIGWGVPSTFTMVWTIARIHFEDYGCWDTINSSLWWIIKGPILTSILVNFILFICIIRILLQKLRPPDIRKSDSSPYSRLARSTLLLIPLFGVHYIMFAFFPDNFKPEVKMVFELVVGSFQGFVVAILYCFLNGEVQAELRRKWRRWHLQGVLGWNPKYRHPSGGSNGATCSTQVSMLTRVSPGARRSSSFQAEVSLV
# Tests used:
# [1] = Peptide stability test, Tris buffer (pH 7.0), 60° C. storage, HPLC remaining rate; format: physicochemical; conditions: Table 7-2; 100 μM in Tris buffer pH 7.0
# Method: Peptides 1, 2 and 6 to 9 synthesized in Example 2 were weighed and dissolved in Tris buffer (pH 7.0) to prepare 1.0 mM peptide solutions. Each solution was filtered with a Chromatdisk (product of Merck Millipore, Millex-GV, 0.22 μm). The filtrate was diluted to 100 μM with Tris buffer (pH 7.0) and dispensed into a tube (Protein LoBind Tube by Eppendorf Co.). The prepared peptide solutions were incubated for 1 week or 2 weeks in a 60° C. thermostatic bath to obtain stored samples. A simultaneously prepared sample among the peptide solutions that was not stored was used as a standard sample (initial sample). The standard sample and the stored samples were stored at −30° C. until sample analysis. Each stored sample was measured under the following HPLC analysis conditions 2, and the remaining rate after correction for water for each peptide among the stored samples was calculated in the same manner as Example 3. Guard column: XSelect CSH C18 by Waters Co., 5 μm, 4.6×20 mm Guard Cartridge Detection wavelength: 220 nm Mobile phase A: 0.1% formic acid aqueous solution Mobile phase B: 0.1% acetonitrile formate solution Measuring time: 20 minutes Measuring sample injection rate: 50 μL Flow rate: 1.0 mL/min Column temperature: 40° C. Sample cooler: 25° C. Mobile phase delivery: The mixing ratio of mobile phase A and mobile phase B was varied as shown in Table 5 for linear concentration gradient control. Peptides 12 to 25, 27 and 28 synthesized in Example 2 were weighed and dissolved in Tris buffer (pH 7.0) to prepare 1.0 mM peptide solutions. Each solution was filtered with a Chromatdisk (product of Merck Millipore, Millex-GV, 0.22 μm). The filtrate was diluted to 100 μM with Tris buffer (pH 7.0) and dispensed into a tube (Protein LoBind Tube by Eppendorf Co.). The prepared peptide solutions were incubated for one week or 2 weeks in a 60° C. thermostatic bath to obtain stored samples. A simultaneously prepared sample among the peptide solutions that was not stored was used as a standard sample (initial sample). The standard sample and the stored samples were stored at −30° C. until sample analysis. The remaining rate after correction for water for each peptide among the stored samples was calculated in the same manner as Example 4, and the results are shown in Table 7. Peptides 29 to 34 synthesized in Example 2 were weighed and dissolved in Tris buffer (pH 7.0) to prepare 1.0 mM peptide solutions. Each solution was filtered with a Chromatdisk (product of Merck Millipore, Millex-GV, 0.22 μm). The filtrate was diluted to 100 μM with Tris buffer (pH 7.0) and dispensed into a tube (Protein LoBind Tube by Eppendorf Co.). The prepared peptide solutions were incubated for 2 weeks in a 60° C. thermostatic bath to obtain stored samples. A simultaneously prepared sample among the peptide solutions that was not stored was used as a standard sample (initial sample). The standard sample and the stored samples were stored at −30° C. until sample analysis. The remaining rate after correction for water for each peptide among the stored samples was calculated in the same manner as Example 4, and the results are shown in Table 7-2. Peptide 26 synthesized in Example 2 was weighed and dissolved in Tris buffer (pH 7.0) to prepare a 1.0 mM peptide solution. The solution was filtered with a Chromatdisk (product of Merck Millipore, Millex-GV, 0.22 μm). The filtrate was diluted to 100 μM with Tris buffer (pH 7.0) and dispensed into a tube (Protein LoBind Tube by Eppendorf Co.). The prepared peptide solution was incubated for one week or 2 weeks in a 60° C. thermostatic bath to obtain stored samples. A simultaneously prepared sample among the peptide solutions that was not stored was used as a standard sample (initial sample). The standard sample and the stored sample were stored at −30° C. until sample analysis. […]
# PAC1 receptor = molecular target: T1, PAC1 receptor; experiment: cell-based or functional assay
# VPAC1 receptor = molecular target: T2, VPAC1 receptor; experiment: cell-based or functional assay
"remaining rate after correction for water, 60° C., 2 weeks preservation [1]","EC50 (PAC1R), cAMP inducing effect (PAC1 receptor)","EC50 (VPAC1R), cAMP inducing effect (VPAC1 receptor)",Molecule
88.7%,,,CC[C@H](C)[C@H](NC(=O)[C@H](C)NC(=O)[C@H](Cc1nnn[nH]1)NC(=O)[C@H](CO)NC(=O)[C@H](Cc1c[nH]cn1)NC(C)=O)C(=O)N[C@@H](Cc1ccccc1)C(=O)N[C@H](C(=O)N[C@@H](Cc1nnn[nH]1)C(=O)N[C@@H](CO)C(=O)N[C@@H](Cc1ccc(O)cc1)C(=O)N[C@@H](CO)C(=O)N[C@@H](CCCNC(=N)N)C(=O)N[C@@H](Cc1ccc(O)cc1)C(=O)N[C@@H](CCCNC(=N)N)C(=O)N[C@@H](CCCCN)C(=O)N[C@@H](CCC(N)=O)C(=O)N[C@@H](C)C(=O)N[C@@H](C)C(=O)N[C@H](C(=O)N[C@@H](CCCCN)C(=O)N[C@@H](CCCCN)C(=O)N[C@@H](Cc1ccc(O)cc1)C(=O)N[C@@H](CC(C)C)C(=O)N[C@@H](C)C(=O)N[C@@H](C)C(=O)N[C@H](C(=O)N[C@@H](CC(C)C)C(N)=O)C(C)C)C(C)C)[C@@H](C)O [Peptide 32] (Ac-HS[Ala(1H-tetrazol-5-yl)]AIFT[Ala(1H-tetrazol-5-yl)]SYSRYRKQAAVKKYLAAVL-NH2)
85.3%,,,CC[C@H](C)[C@H](NC(=O)[C@H](C)NC(=O)[C@H](Cc1nnn[nH]1)NC(=O)[C@H](C)NC(=O)[C@H](Cc1c[nH]cn1)NC(C)=O)C(=O)N[C@@H](Cc1ccccc1)C(=O)N[C@H](C(=O)N[C@@H](Cc1nnn[nH]1)C(=O)N[C@@H](CO)C(=O)N[C@@H](Cc1ccc(O)cc1)C(=O)N[C@@H](CO)C(=O)N[C@@H](CCCNC(=N)N)C(=O)N[C@@H](Cc1ccc(O)cc1)C(=O)N[C@@H](CCCNC(=N)N)C(=O)N[C@@H](CCCCN)C(=O)N[C@@H](CCC(N)=O)C(=O)N[C@@H](C)C(=O)N[C@@H](C)C(=O)N[C@H](C(=O)N[C@@H](CCCCN)C(=O)N[C@@H](CCCCN)C(=O)N[C@@H](Cc1ccc(O)cc1)C(=O)N[C@@H](CC(C)C)C(=O)N[C@@H](C)C(=O)N[C@@H](C)C(=O)N[C@H](C(=O)N[C@@H](CC(C)C)C(N)=O)C(C)C)C(C)C)[C@@H](C)O [Peptide 33] (Ac-HA[Ala(1H-tetrazol-5-yl)]AIFT[Ala(1H-tetrazol-5-yl)]SYSRYRKQAAVKKYLAAVL-NH2)
96.9%,,,CC[C@H](C)[C@H](NC(=O)[C@H](C)NC(=O)[C@H](Cc1nnn[nH]1)NC(=O)[C@H](CO)NC(=O)[C@H](Cc1c[nH]cn1)NC(C)=O)C(=O)N[C@@H](Cc1ccccc1)C(=O)N[C@H](C(=O)N[C@@H](Cc1nnn[nH]1)C(=O)N[C@@H](CO)C(=O)N[C@@H](Cc1ccc(O)cc1)C(=O)N[C@@H](CO)C(=O)N[C@@H](CCCNC(=N)N)C(=O)N[C@@H](Cc1ccc(O)cc1)C(=O)N[C@@H](CCCNC(=N)N)C(=O)N[C@@H](CCCCN)C(=O)N[C@@H](C)C(=O)N[C@@H](C)C(=O)N[C@@H](C)C(=O)N[C@H](C(=O)N[C@@H](CCCCN)C(=O)N[C@@H](CCCCN)C(=O)N[C@@H](Cc1ccc(O)cc1)C(=O)N[C@@H](CC(C)C)C(=O)N[C@@H](C)C(=O)N[C@@H](C)C(=O)N[C@H](C(=O)N[C@@H](CC(C)C)C(N)=O)C(C)C)C(C)C)[C@@H](C)O [Peptide 34] (Ac-HS[Ala(1H-tetrazol-5-yl)]AIFT[Ala(1H-tetrazol-5-yl)]SYSRYRKAAAVKKYLAAVL-NH2)
,0.061 nM,0.033 nM,HSXGIFTXSYSRYRKQAAVKKYLAAVL (N-terminal acetyl (Ac-); Tz (aspartic acid with carboxyl group replaced by tetrazole) at positions 3 and 8; C-terminal amide (NH2)) [Peptide 18]
,0.099 nM,0.132 nM,HSXGIFTXSYSRYRKALAVKKYLAAVL (N-terminal acetyl (Ac-); Tz (aspartic acid with carboxyl group replaced by tetrazole) at positions 3 and 8; C-terminal amide (NH2)) [Peptide 17]
,,0.101 nM,HSXGIFTDSYSRYRKQMAVKKYLAAVL (Tz (aspartic acid with carboxyl group replaced by tetrazole) at position 3; C-terminal amide (NH2)) [Peptide 3]
,0.132 nM,0.072 nM,HSXGIFTXSYSRYRKXLAVKKYLAAVL (N-terminal acetyl (Ac-); Tz (aspartic acid with carboxyl group replaced by tetrazole) at positions 3 and 8; egTz (glutamine with amide replaced by tetrazole) at position 16; C-terminal amide (NH2)) [Peptide 13]
,0.023 nM,0.087 nM,HSXGIFTXSYSRYRKQLAVKKYLAAVL (N-terminal mesyl (Ms-); Tz (aspartic acid with carboxyl group replaced by tetrazole) at positions 3 and 8; C-terminal amide (NH2)) [Peptide 12]
,0.033 nM,0.064 nM,HSXGIFTXSYSRYRKQMAVKKYLAAVL (Tz (aspartic acid with carboxyl group replaced by tetrazole) at positions 3 and 8; C-terminal amide (NH2)) [Peptide 5]
,0.08 nM,0.04 nM,HSXGIFTXSYSRYRKQLAVKKYLAAVA (N-terminal acetyl (Ac-); Tz (aspartic acid with carboxyl group replaced by tetrazole) at positions 3 and 8; C-terminal amide (NH2)) [Peptide 20]
,0.094 nM,0.044 nM,HSXGIFTXSYSRYRKQLAAKKYLAAVL (N-terminal acetyl (Ac-); Tz (aspartic acid with carboxyl group replaced by tetrazole) at positions 3 and 8; C-terminal amide (NH2)) [Peptide 19]
,0.33 nM,0.065 nM,HSXGIFTXSYARYRKQLAVKKYLAAVL (N-terminal acetyl (Ac-); Tz (aspartic acid with carboxyl group replaced by tetrazole) at positions 3 and 8; C-terminal amide (NH2)) [Peptide 16]
,0.074 nM,0.099 nM,HAXGIFTXSYSRYRKQLAVKKYLAAVL (N-terminal acetyl (Ac-); Tz (aspartic acid with carboxyl group replaced by tetrazole) at positions 3 and 8; C-terminal amide (NH2)) [Peptide 14]
,0.061 nM,0.149 nM,HSXGIFTXAYSRYRKQLAVKKYLAAVL (N-terminal acetyl (Ac-); Tz (aspartic acid with carboxyl group replaced by tetrazole) at positions 3 and 8; C-terminal amide (NH2)) [Peptide 15]
,0.038 nM,0.19 nM,HSXGIFTXSYSRYRKQXAVKKYLAAVL (N-terminal mesyl (Ms-); Tz (aspartic acid with carboxyl group replaced by tetrazole) at positions 3 and 8; norleucine at position 17; C-terminal amide (NH2)) [Peptide 11]
,0.04 nM,0.053 nM,HSDGIFTXSYSRYRKQMAVKKYLAAVL (Tz (aspartic acid with carboxyl group replaced by tetrazole) at position 8; C-terminal amide (NH2)) [Peptide 4]
,0.076 nM,0.101 nM,HSXGIFTXSYSRYRKQMAVKKYLAAVL (N-terminal acetyl (Ac-); Tz (aspartic acid with carboxyl group replaced by tetrazole) at positions 3 and 8; C-terminal amide (NH2)) [Peptide 10]
